Reference: IntAct's records for PubMed 20802462

B1: ERO1-like protein alpha (Homo sapiens), Q96HE7 (parent)
chain: MGRGWGFLFGLLGAVWLLSSGHGEEQPPETAAQRCFCQVSGYLDDCTCDVETIDRFNNYRLFPRLQKLLESDYFRYYKVNLKRPCPFWNDISQCGRRDCAVKPCQSDEVPDGIKSASYKYSEEANNLIEECEQAERLGAVDESLSEETQKAVLQWTKHDDSSDNFCEADDIQSPEAEYVDLLLNPERYTGYKGPDAWKIWNVIYEENCFKPQTIKRPLNPLASGQGTSEENTFYSWLEGLCVEKRAFYRLISGLHASINVHLSARYLLQETWLEKKWGHNITEFQQRFDGILTEGEGPRRLKNLYFLYLIELRALSKVLPFFERPDFQLFTGNKIQDEENKMLLLEILHEIKSFPLHFDENSFFAGDKKEAHKLKEDFRLHFRNISRIMDCVGCFKCRLWGKLQTQGLGTALKILFSEKLIANMPESGPSYEFHLTRQEIVSLFNAFGRISTSVKELENFRNLLQNIH

Variants of: B1
Conditions: with pdia1_human P4HB

Variant	effect of a mutation on the interaction
C94S	disrupting interaction
